This test concerns the target 16055 DG4 NFL trimer (HIV-1 (Indian subtype C 16055 strain)). As to the kind of experiment: SEC + native gel or EMSA. A general note: A gel shift assay detects complexes by their altered migration in electrophoresis.

“And” between values parts separate entries of the source, which are not always exact repeats. Equal values may be shown once.

The term stoichiometry N denotes a count of units in the complex or per binding partner. Turning to 16055 DG4 NFL trimer, the stoichiometry N is 3 and 6.

(Values after article PMC12368178.)
